# Measured values reported in the supplement of paper PMC7125110.
# ± gives the standard error. This sample holds only a part of the variants without activity.
# B1: glmS ribozyme (parent)
# chain: AUAAAAGCGCCAGAACUACAGAAAUGUAGUUGACGAGGAGGAGGUUUAUCGAAUUUUCGGCGGAUGCCUCCAAA
# Variants of: B1
# Test: self-cleavage kobs at 10000 uM GlcN6P; higher = faster cleavage; RNA array
# Conditions: with glucosamine-6-phosphate
# How it was run: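 On sequenced MiSeq chips, barcoded ribozyme variants were made in situ by E. coli RNA polymerase and followed at 37 °C through a hybridised Cy3 probe. Glucosamine-6-phosphate was flowed in at 40 μM to 10 mM in HEPES/KCl/Mg(OAc)2 buffer. Exponential fits to normalised per-tile medians gave kobs, and weighted Michaelis–Menten fits gave kcat and KM.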
row,Variant,self-cleavage kobs at 10000 uM GlcN6P [s⁻¹]
1,AUAAAAGCGCCAGGACUACAGAAAUGUAGUUGUCGAGGUGGAGGUUUAUCGAAUUUUCGGCGGAUGCCUCCAAA [A14G A33U A39U],4.23e-05 ± 1.4e-05
2,AUAAAAGCGCUGGAACUACAGAAAUGUAGUUGACGAGGAGGAGGUUUAUUGAAUUUUCGGCGGAUGCCUCCAAA [C11U A12G C50U],< 1e-05
3,AUAAAAGCGCCAGAACUACAGAAAUGUAGUUGACGAAGAGGAGGUUUAUCGAAUUCUCGGCGGAUUCCUCCAAA [G37A U56C G66U],2.45e-05 ± 1.1e-05
4,AUAAAAGCGCCAGAACUACAGAAAUGUAGUUGACGAGGAGGAGGACUAUCGAAUUUUCGGCGGAUGGCUCCAAA [U45A U46C C67G],0.000673 ± 0.00013
5,AUAAAAGCGCCAGAACUACAGAAAUGUACUUGACGGGGAGGAGGUUUAUCGAAUUUUCGCCGGAUGCCGCCAAA [G29C A36G G60C U69G],< 1e-05
6,AUAAAAGCGCCAGAACUACAGAAAUGUAGUUGACGAGGAGGAAGUUUAUCGAAUUUUCCGCGGAUGGCUCCAAA [G43A G59C C67G],< 1e-05
7,AUAAAAGAGCCAGAACUACAGAAAUGUAGUUGACGAGGAGGAGGUUUAUCGAAUUCUCGGCGGAUGCCUGCAAA [C8A U56C C70G],< 1e-05
8,AUAAAAGCGCCAGCACUACAGAAAUGUAGUUGACGAGGAGGAGGUUUAUCGAAUUUUUGGCGGAUGCCUCCAAA [A14C C58U],8.12e-05 ± 1.2e-05
9,AUAAAAACGCCAGAACUACAGAAAUGUAUUUGACGACGAGGAGGUUUAUCGAAUUUUCGGCGGAUGCCUCCAAA [G7A G29U G37C],< 1e-05
10,AUAAAAGCGCCAAAACUACAGAAAUGUAGUUGACGAGGAGGAGGUUUAUCGAAUUUUCGGCGGAUGCCUCAAAA [G13A C71A],0.000168 ± 3.3e-05
11,AUAAAAGCGCCAGAACUACAGAAAUGUAGUUGACGAGGCGGAGGUAUAUCGAAUAUACGGCGGAUGCCUCCAAA [A39C U46A U55A U57A],< 1e-05
12,AUAAAAGCGCCAGAACUACAGAAAUGUAGUAGACGAGGAGGAGGUUUAACGAAUUUUCGGCGGACGGCUCCAAA [U31A U49A U65C C67G],< 1e-05
13,AUAAAAGCGCCAGAACUACAGAAAUGUAGUUGACGAGGACUAGGUUUAUCGAAUUUUCGGCAGAUGCCUCCAAA [G40C G41U G62A],< 1e-05
14,AUAAAAGCGCCAGAACUACAGAAAUGUAGUCGACGAGGAGGAGGUUUAUCGAAUUUUUGGCGCAUGCCUCCAAA [U31C C58U G63C],< 1e-05
15,AUAAAAGUGCCAGAACUACAGAAAUGUAGUUGACGAGGAGGAGGUUUAUCGAAAAUUCGGCGGAUGGCUCCAAA [C8U U54A U55A C67G],0.000463 ± 0.00023
16,AUAAAAGCGCCAGAACUACAGAAAUGUAGUUGACGAGGAGGAGUUUUAUCGAAUUUUCGGCGGCUGCCUUCAAA [G44U A64C C70U],< 1e-05
17,AUAAAAGCGCCAGAACUACAGAAAUGUAGUUGACGAGGAGGAUGUGUAUUGAAUUUUAGGCGGAUGCCUCCAAA [G43U U46G C50U C58A],< 1e-05
18,AUAAAACCGCAAAAACUACAGAAAUGUAGUUGACGAGGAGGAGGUUUAUCGAAUUUUCGGCGGAUGCCUCCAAA [G7C C11A G13A],< 1e-05
19,AUAAAAGCGCCAGAACUACAGAAAUGUAGUUGACGAGGCGGACGUUUAUAGAAUUUUCGGCGGAUGCCUCCAAA [A39C G43C C50A],< 1e-05

row,Variant,self-cleavage kobs at 10000 uM GlcN6P [s⁻¹]
1,AUAAAAGCGCCGGAACUACAGAAAUGUAGUUGACGAGGAGGAGGUUUAUCGAAUUUUCGGAGGAUGCCUCCAAA [A12G C61A],< 1e-05
2,AUAAAAGCGCCAGAUCUACAGAAAUGUAGUUGACGAGGAGGAGGUUUAUAGAAUUUUCGGCGGAUGUCUCCAAA [A15U C50A C67U],< 1e-05
3,AUAAAAGCGCCAGAAGUACAGAAAUGUAGUUGACGAGGAGGAGGUCUAUCGAAUUUUCGGCGGAUGCCUUCAAA [C16G U46C C70U],0.000325 ± 7.4e-05
4,AUAAAAGCGCCAGAACUACAGAAAUGUGGUUGACGAGGAGGAGGUUUAUCGUGUUUUCGGCGGAUGCCUCCAAA [A28G A52U A53G],9e-05 ± 1.6e-05
5,AUAAAAGUGCCAGAACUACAGAAAUGUAGUUGACGAGGAGGAGGUUGAUCGAAUUUUCGGCGAAUGCCUACAAA [C8U U47G G63A C70A],0.000324 ± 0.00012
6,AUAAAAGCGCCAGAAGUACAGAAAUGUAGUUGACGAGGAGGAUGUUUAUCGAAUUUUCGGCGGAUGCUUCCAAA [C16G G43U C68U],0.0002 ± 4.7e-05
7,AUAAAAGCGCAAGACCUACAGAAAUGUAGUUGACGAGGAGGAGGUUUAUCGAAGUUUCGGCGGAUGCCUCCAAA [C11A A15C U54G],5.7e-05 ± 1.8e-05
8,AUAAAAGCGCCAGAACUACAGAAAUGUAGUUGACGAGGAGGAGCUUUAUCGAAUCUCCUGCGGAUGCCUCCAAA [G44C U55C U57C G59U],< 1e-05
9,AUAAAUGCGCCAGAACUACAGAAAUGUAGUUGACGAGGAGGAGGGUUAUCGAAUUUUCGGCGGAUGACUCCAAA [A6U U45G C67A],4.59e-05 ± 1.8e-05
10,AUAAAAGCGCCAGAGCUACAGAAAUGUAGUUGACGAGGAGGUGGUUUAUCGAAUUUUCGGCGGAUGCCACCAAA [A15G A42U U69A],0.00624 ± 0.0018
11,AUAAAAGCGCCAGAACUACAGAAAUGUAGUUGACGAGUAGGAGGUUUACCGAAUUUUCGGCGAAUGCCUCCAAA [G38U U49C G63A],< 1e-05
12,AUAAAAACCCCAGAACUACAGAAAUGUAGUUGACGAGGAUGAGGUUUAUCGAAUUUUCGGCGGAUGCCUCCAAA [G7A G9C G40U],< 1e-05
13,AUAAAAGCGCCAGAACUACAGAAAUGUAGUGGUCGAGGAGGAGGUUUAUCGAGUUUUCGGCGGAUGCCUCCAAA [U31G A33U A53G],2.81e-05 ± 1.3e-05
14,AUAAAAGCGCCAGAACUACAGAAAUGUAGUUGACUAGGAGGAGGGUUAUCGAAUUUUCGGCGGAUGGCUCCAAA [G35U U45G C67G],< 1e-05
15,AUAAAAGCGCCCGAACUACAGAAAUGUAGUUGACGAGGAGGAGGUUUAUCAAAUUUUCUGCGGAUUCCUCCAAA [A12C G51A G59U G66U],< 1e-05
16,AUAAAAGCGCCAGAACUACAGAAAUGUAGUUGACGAGGAGGAGGUUUAUCGAAAUUUCGACGGAUGCCUCCAAA [U54A G60A],3.42e-05 ± 1.5e-05
17,AUAAAAGCGCCAGACCUACAGAAAUGUAGUUGACGAGGAGGACGUUUAUCAAAUUUUGGGCGGAUGCCUCCAAA [A15C G43C G51A C58G],< 1e-05
18,AUAAAAGCGCCAGAACUACAGAAAUGUAGUUGACGCGGAGGAGGUUGAUCGAAUUUUCGGCGGAGGCCUCCAAA [A36C U47G U65G],< 1e-05
